Results on four substances are retold here after publication doi:10.1101/2021.08.28.458007v1.

The data set deals with O=C1O[C@H]([C@@H](O)CO)C(=O)C1=O. The data set can be described thus: purified protein. Conditions: co-substrate GSH, 50 mM phosphate pH 6.8, 0.2 mM EDTA.

As to HsCLIC1 (Homo sapiens), the Km is recorded as 2753 (±939.5) μM and the kcat turned out to be 0.00542 s⁻¹.
For the substance HsCLIC1 (Homo sapiens; K13A), the Km was 4121 (±858.6) μM and the kcat came out at 0.0002 s⁻¹.
Take HsCLIC3 (Homo sapiens): the Km is recorded as 310.2 (±140.2) μM and the kcat came to 0.00197 s⁻¹.
As to HsCLIC4 (Homo sapiens), the Km is on record as 495.1 (±316.6) μM and the kcat came to 0.00222 s⁻¹.

The kcat is the maximal rate divided by the concentration of active sites.
